B1: tremelimumab: anti-CTLA-4 antibody; in Example 2 given as 750 mg monotherapy Q4W for seven doses then Q12W (T) (antibody)
VH: GVVQPGRSLRLSCAASGFTFSSYGMHWVRQAPGKGLEWVAVIWYDGSNKYYADSVKGRFTISRDNSKNTLYLQMNSLRAEDTAVYYCARDPRGATLYYYYYGMDVWGQGTTVTVSSASTKGPSVFPLAPCSRSTSESTAALGCLVKDYFPEPVTVSWNSGALTSGVH
VL: PSSLSASVGDRVTITCRASQSINSYLDWYQQKPGKAPKLLIYAASSLQSGVPSRFSGSGSGTDFTLTISSLQPEDFATYYCQQYYSTPFTFGPGTKVEIKRTVAAPSVFIFPPSDEQLKSGTASVVCLLNNFYPREAKV
modifications: heavy chain variable region; light chain variable region

Assays:
[1] = test system: advanced hepatocellular carcinoma (HCC); experiment: Randomized open-label multi-center clinical study of durvalumab and tremelimumab (Example 2): efficacy (ORR, OS, PFS); format: in vivo, human patients; conditions: for ORR, % / Median (95% CI) OS, mo: Table 1, per study arm; for Median (95% CI) OS, mo: 95% CI given; for Median PFS (95% CI): patients with advanced HCC, Kaplan-Meier (FIG. 11)
Description: Primary analysis of all tumor assessment-related endpoints was based on BICR assessments according to RECIST v1.1.
Evaluation of target lesions were classified as follows: • Complete Response—Disappearance of all target lesions. Any pathological lymph nodes (whether target or non-target) must have reduction in short axis to <10 mm (the sum may not be “0” if there are target nodes). • Partial Response—At least a 30% decrease in the sum of the diameters of target lesions, taking as reference the baseline sum diameters. • Progressive Disease—At least a 20% increase in the sum of diameters of target lesions, taking as reference the smallest sum on study (this includes the baseline sum if that is the smallest on study). […] (Note: The appearance of one or more new lesions may be considered progression.) • Stable Disease—Neither sufficient shrinkage to qualify for PR nor sufficient increase to qualify for PD, taking as reference the smallest sum of diameters while on study.
The study disclosed below is a randomized, open-label, multi-center, global, clinical study to assess the efficacy and safety of durvalumab monotherapy and durvalumab plus tremelimumab combination therapy versus sorafenib in the treatment of immune checkpoint inhibitor-naïve patients with HCC who progressed on, were intolerant to, or refused sorafenib. In the foregoing disclosure, a flat-dose regimen of 1500 mg (approximately equivalent to 20 mg/kg) of durvalumab plus 300 mg (equivalent to 4 mg/kg) of tremelimumab was used in this study.
The study population included patients 18 years of age or older with advanced HCC, Barcelona Clinic Liver Cancer Stage B (not eligible for locoregional therapy) or stage C, and Child-Pugh A classification liver disease. Patients must not have received any prior systemic therapy for HCC. Patients were stratified according to macrovascular invasion (yes versus no), etiology of liver disease (hepatitis B virus [confirmed HBV] versus hepatitis C virus [confirmed HCV] versus others), and performance status (Eastern Cooperative Oncology Group [ECOG] 0 versus 1).
A total of 332 patients were enrolled (T300+D, n=75; durvalumab, n=104; tremelimumab, n=69; T75+D, n=84). Patients were randomized in an equal ratio to groups treated with durvalumab 1500 mg monotherapy (D), tremelimumab 750 mg monotherapy (T), combination therapy with durvalumab 1500 mg plus tremelimumab 75 mg×4 doses (T75+D) followed by durvalumab Q4W, combination therapy with durvalumab 1500 mg plus tremelimumab 300 mg×1 dose (T 300+D) followed by durvalumab Q4W. Upon closure to further enrollment into the T75+D arm, patients were randomized in an equal ratio to groups treated with D, T300+D, and Sorafenib. Durvalumab and tremelimumab were administered via intravenous (IV) infusion every 4 weeks (Q4W). Sorafenib was administered orally BID (see FIGS. 3 and 4).
Tremelimumab 750 mg via IV infusion Q4W starting at Week 0 for seven doses and then Q12W until confirmed PD, unacceptable toxicity, or any discontinuation criterion was met. (Note: If a patient's weight decreased to ≤30 kg, the patient received weight-based dosing of tremelimumab 10 mg/kg Q4W, until the weight increased to >30 kg, at which point the patient received the flat dose of tremelimumab 750 mg Q4W).
• Durvalumab 1500 mg via IV infusion Q4W starting at Week 0 until confirmed PD, unacceptable toxicity, or any discontinuation criterion was met. (Note: If a patient's weight decreased to ≤30 kg, the patient received weight-based dosing of durvalumab 20 mg/kg Q4W, until the weight increased to >30 kg, at which point the patient received the flat dose of durvalumab 1500 mg Q4W.) […]

[2] = test system: peripheral blood T cell receptors (T-cell clones); experiment: Molecular analysis of peripheral blood T cell receptors (TCR clonality, immunoSeq) on day 29; format: in vivo, human patients; conditions: for Median expanded T cell clones at Day 29, n: Day 29, first cycle of Q4W dosing, immunoSeq paired samples
Description: This trend was not seen with monotherapy D or the lower dose T combination (T75+D) (FIG. 15). Additionally, greater clonal expansion of T-cells was associated with better OS and seen in D+T combination arms (FIG. 16).

[3] = test system: proliferating CD8+ Ki67+ T cells; experiment: Exposure-response model: tremelimumab trough concentration vs change from baseline of CD8+ Ki67+ T cell counts; format: in vivo, patients with uHCC
Method: (§1) Finally, an exposure-response model was developed to describe the relationship between tremelimumab exposure and proliferating CD8+ Ki67+ T cells in patients with uHCC. Relationships between tremelimumab trough concentration after the first dose (Cmin) and the maximum change from baseline (CFB) for CD8+ Ki67+ T cell counts were evaluated using linear and non-linear regression models. Covariate effects were evaluated on the model intercept and the drug effect (Emax) using a stepwise search approach. The relationship between CD8+Ki67+ T cell count CFB and tremelimumab trough concentration was best described by an Emax model. The only statistically significant and well estimated covariate effect was the baseline CD8+ Ki67+ T cell count on Emax. The maximum effect was higher in patients with lower baseline CD8+ Ki67+ T cell counts and lower in patients with higher baseline CD8+ Ki67+ T cell counts. At the 10th, median, and 90th percentiles of baseline CD8+(3, 9, and 25 cells/uL), the maximum effect is 593%, 341%, and 77.9% change from baseline, respectively.

[4] = Tremelimumab trough concentration after the first dose (Cmin); format: in vivo, patients with uHCC; conditions: 300 mg tremelimumab
Method: as §1

Molecule	ORR, % [1] [%]	Median (95% CI) OS, mo [1] [mo]	Median PFS (95% CI) [1]	clonal expansion of T cells in responders compared to non-responders ([2]; Day 29 (FIG. 15))	Median expanded T cell clones at Day 29, n [2]	maximum effect (Emax), change from baseline of CD8+ Ki67+ T cell count ([3]; 10th percentile of baseline CD8+ (3 cells/uL)) [%]	maximum effect (Emax), change from baseline of CD8+ Ki67+ T cell count ([3]; 90th percentile of baseline CD8+ (25 cells/uL)) [%]	estimated half-maximal effective concentration (EC50) ([3]; Emax model, CD8+Ki67+ T cell count change from baseline vs tremelimumab Cmin) [µg/mL]	maximum effect (Emax), change from baseline of CD8+ Ki67+ T cell count ([3]; median baseline CD8+ (9 cells/uL)) [%]	median Cmin (trough concentration after the first dose) [4] [ng/mL]
durvalumab: human monoclonal antibody directed against human PD-L1; in Example 2 given as 1500 mg monotherapy Q4W (D)	10.6	13.6	2.07 (1.84-2.83) months	not seen	32 (13, 46)					
B1	7.2	15.1	2.69 (1.87-5.29) months		100 (50, 160)	593	77.9	5.24	341	12900
